{"source": "the DeepSol protein solubility set", "data": [{"assay": "soluble on expression in E. coli; label from the status in PepcDB or PDB records", "values": [{"sequence": "MGSDKIHHHHHHMARILIIRFSALGDVAMTIPVVHSLAVQYPQLEITVLSRAVWQPLFQGLPANVSFIGADLTGKHKGLWGLNTLYSELKAKHFDYVADFHHVLRTKYLCLRFRLANIPVASIYKGRVGKEKLVRRRHKVLENQKSSFRRYADVLEKLGFPVLLNFSSIYGDEKGNFAEIEPVTGAKDNLKWIGIAPFAKHMGKIYPIELQEQVVAHFAADPKVKVFLFGGGKSEQEVFDGWVAKYPTVVSMIGKLNMRTELNLMSHLDVMLSMDSANMHLASLVNIPVISVWGATHPYAGFMGWKQLPVNTVQFDLSCRPCSVYGQKPCWRGDYACLREIKPEQVIAKIEGIIN", "soluble on expression in E. coli": "not soluble"}, {"sequence": "MGSDKIHHHHHHMKQSEQEEPLTGGNVSDVSRIGETVRREQKPESLRVHRVLQHLEQKGFEGSPRYLGIDPQGREILSFIEGEAGNYPLQPYMQSDRVLEETARLLRSYHEAVADFPIPTDWQPLDGTPEPLELICHNDFAVYNVIFQNERPVGIIDFEVAAPGPRIWDIAYTMYTFVPLSRHQMTEDGEPAHYNPVNDQERIRRRVLLFLSAYGKAELKDEMYETVLLRVEALIKTIHRRAAEGDDAFQRMIDDGHVTHYEQEIDFLKREGADWFR", "soluble on expression in E. coli": "not soluble"}, {"sequence": "MLTSRALRIPRKPFVDLDYARHMPSAYVERTKRTVPRKVFGDRFGAPDIKMYYVHPDDYVPSHRRPWEDKQISSHLHRSDKYFSAQLSNQYFNLRRPKSERMADTEWTFFPGDLVQVMVGKDKGRQGLVLTTSRDSSDVIVDGLHTKLGEDMEGSEKLGVDKTLRWQEQPLSVSKKQVMLVDPNDEQPCEARWQLNGPGDEYIRVSTRSGYEIPIPSQAKVTYEYLQPENYIEVEGKDTPADAVLERTYMPKVASFEQEIMEEMGIKEERTPKPTFWY", "soluble on expression in E. coli": "not soluble"}, {"sequence": "SRLFSKALKGDHRCGETETPKSCSEVAGCKAAMRHQGKIPEELSLDDRARTQKKWGRGKWEPEPSSKPPREATLEERHARGEKHLGVEIEKTSGEIIRCEKCKRERELQQSLERERLSLGTSELDMGKGPMYDVEKLVRTRSCRRSPEANPASGEEGWKGDSHRSSPRNPTQELRRPSKSMDKKEDRGPEDQESHAQGAAKAKKDLVEVLPVTEEGLREVKKDTRPMSRSKHGGWLLREHQAGFEKLRRTRGEEKEAEKEKKPCMSGGRRMTLRDDQPAKLEKEPKTRPEENKPERPSGRKPRPMGIIAANVEKHYETGRVIGDGNFAVVKECRHRETRQAYAMKIIDKSRLKGKEDMVDSEILIIQSLSHPNIVKLHEVYETDMEIYLILEYVQGGDLFDAIIESVKFPEPDAALMIMDLCKALVHMHDKSIVHRDLKPENLLVQRNEDKSTTLKLADFGLAKHVVRPIFTVCGTPTYVAPEILSEKGYGLEVDMWAAGVILYILLCGFPPFRSPERDQDELFNIIQLGHFEFLPPYWDNISDAAKDLVSRLLVVDPKKRYTAHQVLQHPWIETAGKTNTVKRQKQVSPSSEGHFRSQHKRVVEQVS", "soluble on expression in E. coli": "soluble"}, {"sequence": "MGSDKIHHHHHHMEKQNNHIDRRGFLKIVGISAATTTAALYGCGSGTKSSQGRNASSPVPTDQMTYRSVGGIKDKVSLLGYGCMRWPTVPSPEGKGDLINQEAVNELVDYAIAHGVNYFDTSPVYVQGWSEKATGIALKRHPREKLYIATKLSNFSNFSRENSLAMYHQSFKDMQVEYFDYYLLHAIGGGGMKVFNERYIDNGMLDFLLKEREAGRIRHLGWSFHGDVEVFDQVLAMHDTVKWDFVQIQLNYVDWRHATGNNVNAEYLYGELAKRNIAAVIMEPLLGGRLSNVPEHIVGRLKQRRPEDSVASWAFRFAGSPELVLTVLSGMTYMEHLQDNIRTYSPLVPLTDDDKEYLEETAQLMMQYPTIPCNDCKYCMPCPYGIDIPAILVHYNKCVNEGNIPQSQTSENYKEARRAFLVGYDRSVPKLRQASHCIGCNQCTPHCPQSIHIPEELHRIDRFVEQLKQGTL", "soluble on expression in E. coli": "not soluble"}, {"sequence": "SFGCLVAGRLVQTAAQQVAEDKFVFDLPDYESINHVVVFMLGTIPFPEGMGGSVYFSYPDSNGMPVWQLLGFVTNGKPSAIFKISGLKSGEGSQHPFGAMNIVRTPSVAQIGISVELLDSMAQQTPVGNAAVSSVDSFTQFTQKMLDNFYNFASSFAVSQAQMTPSPSEMFIPANVVLKWYENFQRRLAQNPLFWKT", "soluble on expression in E. coli": "soluble"}, {"sequence": "LVPRGSAMGISNDSSRGANRTIVVTTILESPYVMYKKNHEQLEGNERYEGYCVDLAYEIAKHVRIKYKLSIVGDGKYGARDPETKIWNGMVGELVYGRADIAVAPLTITLVREEVIDFSKPFMSLGISIMIKKGTPIESAEDLAKQTEIAYGTLDSGSTKEFFRRSKIAVYEKMWSYMKSAEPSVFTKTTADGVARVRKSKGKFAFLLESTMNEYIEQRKPCDTMKVGGNLDSKGYGVATPKGSALGTPVNLAVLKLSEQGILDKLKNKWWYDKGECG", "soluble on expression in E. coli": "soluble"}, {"sequence": "MAKYSEQFKLTVVKAYLAGNIGFRKVSSQFSIDSSLLRRWVANYKSHGHTGHRKPGLRYSEAFKRSVLEHKREHGLSLRQTAAHFGIGDPGQIVIWEQQHYSNDLAPYVPKRRKSVAMPKKPYPTAPVIDDDTQKTRDQLMAELEYLRMENAYLKKLEELKEQQRRQKKKPLEHHHHHH", "soluble on expression in E. coli": "soluble"}, {"sequence": "MGSDKIHHHHHHSDIASSVNGGSNRLADGGDFELGMSVYGINQIDVRQTGSGTAQLSLLVSGMYQYKGMFVEMIHQSQDGVNLGVNLWSSEDWSFDLLLANLQGSWSRPDLDPSTLDEAGRNAYLLSEDSLYIGAGFRATRYWGDNYVFQYRLVSDYYDDQGIQSSARLGKSWQVRNWNFHVLGSVGYSSATLNRYLFGVSKEEATELFPEYHPSSSFSYGMELGVAYPLSESFVFRAMYRFNVLSKEVTDSPFNQAGYASFFNASISYVF", "soluble on expression in E. coli": "not soluble"}, {"sequence": "MVCDEKRYAIREVAEITGVKPVTLRAWQRRYNLVQPDRTEKGHRLFTDQDIEMIRQIQSWLAKGVAIGKVGALLQSGVSESESIPQPVGQLEECETLLTALAALQRSKAEQIIATVLKEYPLSVMQAQFVQPVTEALERVKGPLRSLQIGLFRTLMLSKLAFILDAENKAAVKGKCLCISLDEAGSLNAWLWALAWAENGHQVTLLEAVDDIRGLLENPGLAQYQILALHAHRALPAAQQSALASLQQQFGEQCVLSNVLQQLQS", "soluble on expression in E. coli": "not soluble"}, {"sequence": "MRITVLILSTLLVTILNGLPIVPVVEDSISPEEVPEPSPEIEENTVPPPRVISPRVDVSVDVNEDGVLDIDEIRYAAFVHHGLSASVVEDLFKQVDTNRDNVLDAREFDAIRMLVLEKAENAALRYLQNVDTDRDGLLSLQEAQIYLLREYGIGYHDVARLWKLVPADLSDRMNSTLFSKLRRRVRGMTIRLARQIMKNADLNGDGHISVDEAQAIAFEQEGIGAGDVASMVGSVDENMDGELNAPEFADFERIIRARAIENSKKAMRVVDADNSGTLTLDEAKRVAFEHYGFDEATLAPFFGQADENEDGQLDNVEFAGFRSVIRARSVRDAMDKMKRIDTNGDGLVSNAEATDSTKKEDDMDSEETLALFNIADQNKSGKLDKVELADFNRLVRLSSIKFATDHFKEFDLDGNDAVTFDEIALLIEQKYGIPRSMIKTFFDRIDVDGSGDLMPAEIVDFRHLIRNHVSQQRQEKVYFLTL", "soluble on expression in E. coli": "not soluble"}, {"sequence": "MNRMMALVMAGGRGTRLAIDCEKPLLEVAGRPMIDHVLEALESATGVDGIIVVTSPHTPMTEDHVRGRHPIFRASGGGYVEDLREVLSHLEESYHEPLLVINSDLPLVRPSTIDWIISSYHSCPEPAMCVAVPDDLCRRHGLDFSGSLDGLVPCGVNILMSKNRVQEQRILEASMLELAVNINSCRDLKVLEKILGEIDGREEAHKRGREVLELEHHHHHH", "soluble on expression in E. coli": "soluble"}, {"sequence": "MKEKVFFKTFGCRTNIYDTELLKSYVKDYEIINDENKAQIIVVNSCTVTNGADSGIKSYVNTMQKKGIKVILTGCGAVSKGKELLDKKQVFGVLGASNKDKINEFLGAKTSFYELGNLNFIDKDIVCEYENHTKAFVKIQEGCDFACSYCIIPSVRGKSRSVDEKALLKQVEILGANGYSEIVLTGTNIGSYGLKNGTTLGKLLQKMGQILGIKRIRLGSLEPAQLDESFLEILDEAWLERHLHIALQHTSEKMLRIMRRRSHTDNDLKLFNTIASKGYALGTDFIVAHPGESEELWQEALRNFKEFPLTHIHAFIFSPRNNTHSATMKDVINGTLAKERLNTLKSIVEKNNYEFRKKNQVSLEVLVENQKDGFFEGYDQFFNKIKIKSDKDIAKEWIVISEYEVQEKSNFTNLKGLEHHHHHH", "soluble on expression in E. coli": "soluble"}, {"sequence": "MSLTSKMMAFLPYFLELKGKRVNIQALINDRVSQAIEAAGAPAGTPALVRQSAKAQFGDYQANGIMGAAKQLGTNPREFAQKVLDVLNLEGIASKTEIAGPGFINIFLSEEFLAAQAEAALADARLGVAQEAPKTIVADYSAPNVAKEMHVGHLRSTIIGDAVVRTLEFLGHKVIRANHIGDWGTQFGMLIANLERVQKASGEVSMELSDLEAFYRESKKLYDEDEQFAETARNYVVKLQGGDPFCLEMWKKLVDVTMIQNQRNYDRLNVSLTRENVMGESMYNDMLPQIVSDLKAKGLAVEDDGAQVVFLEEFKNKDGEPMGVIIQKRDGGFLYTTTDIACAKYRYETLGADRVLYFIDSRQHQHLMQAWTIVRKAGYIPENVSLEHHAFGMMLGKDGRPFKTRAGGTVRLADLLDEAQERAKALIESKNPELSAEEKANIANTVAMAAVKYADLSKHRTTDYVFDWDNMLAFEGNTAPYMQYAYTRVASVFAKAGVDMNELTGHIQITEEKEKALIAKLLQFEEAVQSVAREGQPHIMCSYLFELAGIFSSFYEACPILVAEQESIKQSRLKLAALTAKTIKQGLALLGIDTLERMEGHHHHHH", "soluble on expression in E. coli": "soluble"}, {"sequence": "MAGEHIKVIYFDGRGRAESIRMTLVAAGVDYEDERISFQDWPKIKPTIPGGRLPAVKVTDDHGHVKWMLESLAIARYMAKKHHMMGETDEEYYSVEKLIGQAEDVEHEYHKTLMKPQEEKEKITKEILNGKVPVLFNMICESLKGSTGKLAVGDKVTLADLVLIAVIDHVTDLDKGFLTGKYPEIHKHRENLLASSPRLAKYLSNRPATPF", "soluble on expression in E. coli": "soluble"}, {"sequence": "MQLTESLGIVLFNRNYREDDKLVKIFTEVAGKQMFFVKHISRSKMSSIIQPLTIADFIFKLNDTGLSYVVDYSNVNTYRYINNDIFRLAYASYVLALADAAIADNESDSHLFTFLKKTLDLMEEGLDYEILTNIFEIQILDRFGISLNFHECAICHRTDLPLDFSHRFSAVLCSEHYYKDNRRNHLDPNVIYLLSRFQKITFDDLRTISLNKDIKKKLRQFIDELYHDYVGIKLKSKTFIDNLVKWGDIMK", "soluble on expression in E. coli": "not soluble"}, {"sequence": "MKEKSIEDIVFEKFQPYINWSIDKLCEHFSINKGEKGLNYRIASAILNLKGKTTKSKPFPEVEEFEKSSIVVKTVHFNKKNVNKESMSFGAFKFEELANEEWEDSEGYPSAQWRNFLLETRFLFFVVKEDEDGVDIFKGIKFFSMPEEDINGPVKRMWDDTVKKLKEGVTLEAVPDKSTKDGWRIKNNFVDKSDDLICHVRPHTNNRDYRGGSNADKLPKKINWINRPDSDDYSDEWMTKQSFWINNDYIKKQVEDLL", "soluble on expression in E. coli": "soluble"}, {"sequence": "MPRARCKRCLRPTGYCLCALIPQIESRTRVLILQHPDEVSHALNTARLAALGLVNAQLCVGEVFDDLHTLLNPPGYQARLLFPGDAAETLTAYAPDATPMLLVVPDGTWRKARKLLHLNPLLAALPRVTLGSVPASRYRLRKAPGPEALSTLEAIVHTLQTLEAPNAFEALLKPFDALIDGQIQAMGNDTYQRNHGNQRLEHHHHHH", "soluble on expression in E. coli": "not soluble"}, {"sequence": "MGTPQGKLKTINGVGKIEDFASTKAKMRVRYPLLITFNYWVLYKSPDKSWFISANPSTEDVWVYARSVPSKAKLNRMMMKVRELGYDVKKLEFPLEHHHHHH", "soluble on expression in E. coli": "not soluble"}, {"sequence": "SNQLQQLQNPGESPPVHPFVAPLSYLLGTWRGQGEGEYPTIPSFRYGEEIRFSHSGKPVIAYTQKTWKLESGAPMHAESGYFRPRPDGSIEVVIAQSTGLVEVQKGTYNVDEQSIKLKSDLVGNASKVKEISREFELVDGKLSYVVRMSTTTNPLQPHLKAILDKL", "soluble on expression in E. coli": "soluble"}]}]}
